This note sets out measurements from article PMC9803922, “Seawater fish use an electrogenic boric acid transporter, Slc4a11A, for boric acid excretion by the kidney” (The Journal of Biological Chemistry, 2022).

Substrate in this data set: OB(O)O
The experiment in a line: two-electrode voltage clamp, boric acid-elicited currents in Xenopus oocytes. The format is cell-based, Takifugu obscurus. The settings on record: total boric acid (B(OH)3 + B(OH)4-), Vh +60 mV, pH 7.5, 18 °C, Na+-independent electrogenic transport. (In general: Two-electrode voltage clamp is typically applied to oocytes expressing channels or transporters.)

B1: Slc4a11A (mfSlc4a11A) (Takifugu obscurus) (protein)
chain: MDMLSQEMELKDEKKEDYGEDSDAIHIYDTEAYISVSDPDRPGFGLLNTTRKYVKPMNFQEEVRAHRDLDNFLAQASILLDERATTLDEVLRRMLAHLLEEGRESCDPDEVMSSVFTDAGGKDFDVHLLSETIQGVTSTSTGIHYQQSWLCILTNLRSLQRRHVCIARLDRPQNWGVNCCEARYVIFILAPPRTKSTKTAIELGRTFATMFSDISFRQRLLETKTQEEFKQELLSYRQKLSTVQEKPVEEEEEDSDPRRGKALQCKDFLKAGKGVYRDLRRRLPLYPSDFTDGLTGKDRCLLKYTTTAIFLYIAILLPAIAFGSLNDESTRGEIDVQKTIVGQSIGGVIYALFAGSPLVIPLTTAPLAIFISVIRGICDDYDLDFDSFYACIGLWNSLFLILGGLFNVSLLMKLFKRSTEEVIALFISIAFVGDAVKGTVKIFQHFYRGPTLTTTNSTLVFQQLEGILNQTNNQTGNGLGEHGQADGHTLVFLPQSLVECTREMPILCLLLMLGTLWLGYTLYLIRRSPYLNDKIREVVSDCALPISVVICSFIGSYLFLNIKLPVFSVHDGPIFNYPPFDKLSGMSALSAVGLGFLLALLIFIDQNIVISLTHVPEHKLLKGTAFHWDLMLTGFINILMSCLGLPWMHAAFPHSSLHARQLAKVEQHVENGHLYTTIVSVKETRLTALAANILIGLSAFMLPIPLQWIPKPVLYGLFLYIAATSLDGNQMVDRMCLLLKEQTSYPPTHYVRRVPQRKVHFFTGVQMIQLIILCAFGMYPLPYMKMVFPLLMILLVPIRTSLLPKMIDAKYLDIMDAQHM
notes: full-length cDNA in pGEMHE, untagged, expressed in Xenopus laevis oocytes; 820 residues; C-terminal region antigen peptide PKMIDAKYLDIMDAQHM
Consider B1, for which the Km is recorded as 6.5 ± 0.6 mM.

The term Km denotes the concentration of substrate that gives half-maximal velocity.
